Assay results as given in PMC8993412.

Key:
[1] = target: SARS-CoV-2 Nsp7 (recombinant) (SARS-CoV-2) (UniProt P0DTD1); experiment: ELISA
[2] = target: SARS-CoV-2 Nsp15 (recombinant) (SARS-CoV-2) (UniProt P0DTD1); experiment: ELISA

Binder | EC50 [1] | EC50 [2]
IgG 16658 (anti-Nsp7) (antibody, V domains shown) VH: EVQLVESGGGLVQPGGSLRLSCAASGFNLSYYSIHWVRQAPGKGLEWVASIYPYYSYTYYADSVKGRFTISADTSKNTAYLQMNSLRAEDTAVYYCARVGFDYWGQGTLVTVSS VL: DIQMTQSPSSLSASVGDRVTITCRASQSVSSAVAWYQQKPGKAPKLLIYSASSLYSGVPSRFSGSRSGTDFTLTISSLQPEDFATYYCQQYAGLITFGQGTKVEIK | 130 nM | –
IgG 16684 (anti-Nsp15) (antibody, V domains shown) VH: EVQLVESGGGLVQPGGSLRLSCAASGFNFSSSSIHWVRQAPGKGLEWVASIYSSYGYTYYADSVKGRFTISADTSKNTAYLQMNSLRAEDTAVYYCARVSYYYPYSWYFYGYYGGLDYWGQGTLVTVSS VL: DIQMTQSPSSLSASVGDRVTITCRASQSVSSAVAWYQQKPGKAPKLLIYSASSLYSGVPSRFSGSRSGTDFTLTISSLQPEDFATYYCQQSSYSLITFGQGTKVEIK | – | 19 nM
